# B1: Pistol ribozyme (parent)
# chain: GGGUCGUUGUUCCAUAAUCGCGUGGAUAUGGCACGCAAGUUUCUACCGGGCACCGUAAAUGUCCGACUGGAGCCGUUCGGGCGGCUAUAAACAGACCUCAGGCCCGAAGCGUGGCGGCACCUGCCGCCGGUGGUAAAAAAGAUCGGAAGAGCACACGUCU
# Variants of: B1
# Experiment: aptazyme ON/OFF ratio, guanine; higher = stronger switching; co-transcriptional cleavage with and without guanine
row,Variant,aptazyme ON/OFF ratio
1,GGGUCGCACGGGCAUAAUCGCGUGGAUAUGGCACGCAAGUUUCUACCGGGCACCGUAAAUGUCCGACUGGAGCCGUUCGGGCGGCUAUAAACAGACCUCAGGCCCGAAGCGUGGCGGCACCUGCCGCCGGUGGUAAAAAAGAUCGGAAGAGCACACGUCU [U7C U8A G9C U10G U11G C12G],1.13
2,GGGUCGGCGGUUCAUAAUCGCGUGGAUAUGGCACGCAAGUUUCUACCGGGCACCGUAAAUGUCCGACUGGAGCCGUUCGGGCGGCUAUAAACAGACCUCAGGCCCGAAGCGUGGCGGCACCUGCCGCCGGUGGUAAAAAAGAUCGGAAGAGCACACGUCU [U7G U8C U10G C12U],1.36
3,GGGUCGACUGUAGAUAAUCGCGUGGAUAUGGCACGCAAGUUUCUACCGGGCACCGUAAAUGUCCGACUGGAGCCGUUCGGGCGGCUAUAAACAGACCUCAGGCCCGAAGCGUGGCGGCACCUGCCGCCGGUGGUAAAAAAGAUCGGAAGAGCACACGUCU [U7A U8C G9U U10G C12A C13G],1.18
4,GGGUCGCAGAAAUAUAAUCGCGUGGAUAUGGCACGCAAGUUUCUACCGGGCACCGUAAAUGUCCGACUGGAGCCGUUCGGGCGGCUAUAAACAGACCUCAGGCCCGAAGCGUGGCGGCACCUGCCGCCGGUGGUAAAAAAGAUCGGAAGAGCACACGUCU [U7C U8A U10A U11A C12A C13U],1.31
5,GGGUCGGGAACGCAUAAUCGCGUGGAUAUGGCACGCAAGUUUCUACCGGGCACCGUAAAUGUCCGACUGGAGCCGUUCGGGCGGCUAUAAACAGACCUCAGGCCCGAAGCGUGGCGGCACCUGCCGCCGGUGGUAAAAAAGAUCGGAAGAGCACACGUCU [U7G U8G G9A U10A U11C C12G],1.23
6,GGGUCGUAUGGGAAUAAUCGCGUGGAUAUGGCACGCAAGUUUCUACCGGGCACCGUAAAUGUCCGACUGGAGCCGUUCGGGCGGCUAUAAACAGACCUCAGGCCCGAAGCGUGGCGGCACCUGCCGCCGGUGGUAAAAAAGAUCGGAAGAGCACACGUCU [U8A G9U U10G U11G C12G C13A],1.05
7,GGGUCGCAUCAUCAUAAUCGCGUGGAUAUGGCACGCAAGUUUCUACCGGGCACCGUAAAUGUCCGACUGGAGCCGUUCGGGCGGCUAUAAACAGACCUCAGGCCCGAAGCGUGGCGGCACCUGCCGCCGGUGGUAAAAAAGAUCGGAAGAGCACACGUCU [U7C U8A G9U U10C U11A C12U],1.12
8,GGGUCGCUGGAUUAUAAUCGCGUGGAUAUGGCACGCAAGUUUCUACCGGGCACCGUAAAUGUCCGACUGGAGCCGUUCGGGCGGCUAUAAACAGACCUCAGGCCCGAAGCGUGGCGGCACCUGCCGCCGGUGGUAAAAAAGAUCGGAAGAGCACACGUCU [U7C U10G U11A C12U C13U],1.22
9,GGGUCGAUGAUCAAUAAUCGCGUGGAUAUGGCACGCAAGUUUCUACCGGGCACCGUAAAUGUCCGACUGGAGCCGUUCGGGCGGCUAUAAACAGACCUCAGGCCCGAAGCGUGGCGGCACCUGCCGCCGGUGGUAAAAAAGAUCGGAAGAGCACACGUCU [U7A U10A C13A],1.07
10,GGGUCGAUGCAUAAUAAUCGCGUGGAUAUGGCACGCAAGUUUCUACCGGGCACCGUAAAUGUCCGACUGGAGCCGUUCGGGCGGCUAUAAACAGACCUCAGGCCCGAAGCGUGGCGGCACCUGCCGCCGGUGGUAAAAAAGAUCGGAAGAGCACACGUCU [U7A U10C U11A C12U C13A],1.17
11,GGGUCGAACAAGAAUAAUCGCGUGGAUAUGGCACGCAAGUUUCUACCGGGCACCGUAAAUGUCCGACUGGAGCCGUUCGGGCGGCUAUAAACAGACCUCAGGCCCGAAGCGUGGCGGCACCUGCCGCCGGUGGUAAAAAAGAUCGGAAGAGCACACGUCU [U7A U8A G9C U10A U11A C12G C13A],1.18
12,GGGUCGGCGCUUUAUAAUCGCGUGGAUAUGGCACGCAAGUUUCUACCGGGCACCGUAAAUGUCCGACUGGAGCCGUUCGGGCGGCUAUAAACAGACCUCAGGCCCGAAGCGUGGCGGCACCUGCCGCCGGUGGUAAAAAAGAUCGGAAGAGCACACGUCU [U7G U8C U10C C12U C13U],1.27
13,GGGUCGGCGCAGGAUAAUCGCGUGGAUAUGGCACGCAAGUUUCUACCGGGCACCGUAAAUGUCCGACUGGAGCCGUUCGGGCGGCUAUAAACAGACCUCAGGCCCGAAGCGUGGCGGCACCUGCCGCCGGUGGUAAAAAAGAUCGGAAGAGCACACGUCU [U7G U8C U10C U11A C12G C13G],1.21
14,GGGUCGUUCGGCCAUAAUCGCGUGGAUAUGGCACGCAAGUUUCUACCGGGCACCGUAAAUGUCCGACUGGAGCCGUUCGGGCGGCUAUAAACAGACCUCAGGCCCGAAGCGUGGCGGCACCUGCCGCCGGUGGUAAAAAAGAUCGGAAGAGCACACGUCU [G9C U10G U11G],1.09
15,GGGUCGUGGCGAUAUAAUCGCGUGGAUAUGGCACGCAAGUUUCUACCGGGCACCGUAAAUGUCCGACUGGAGCCGUUCGGGCGGCUAUAAACAGACCUCAGGCCCGAAGCGUGGCGGCACCUGCCGCCGGUGGUAAAAAAGAUCGGAAGAGCACACGUCU [U8G U10C U11G C12A C13U],1.2
16,GGGUCGUACAACCAUAAUCGCGUGGAUAUGGCACGCAAGUUUCUACCGGGCACCGUAAAUGUCCGACUGGAGCCGUUCGGGCGGCUAUAAACAGACCUCAGGCCCGAAGCGUGGCGGCACCUGCCGCCGGUGGUAAAAAAGAUCGGAAGAGCACACGUCU [U8A G9C U10A U11A],1.37
17,GGGUCGGGAAGCUAUAAUCGCGUGGAUAUGGCACGCAAGUUUCUACCGGGCACCGUAAAUGUCCGACUGGAGCCGUUCGGGCGGCUAUAAACAGACCUCAGGCCCGAAGCGUGGCGGCACCUGCCGCCGGUGGUAAAAAAGAUCGGAAGAGCACACGUCU [U7G U8G G9A U10A U11G C13U],1.14
18,GGGUCGACAACGGAUAAUCGCGUGGAUAUGGCACGCAAGUUUCUACCGGGCACCGUAAAUGUCCGACUGGAGCCGUUCGGGCGGCUAUAAACAGACCUCAGGCCCGAAGCGUGGCGGCACCUGCCGCCGGUGGUAAAAAAGAUCGGAAGAGCACACGUCU [U7A U8C G9A U10A U11C C12G C13G],1.17

# Reference: the RNAGym collection of RNA variant scans (doi:10.1021/acssynbio.7b00057)
